T1: mouse CD33 Fc fusion protein (mouse, UniProt Q63994 18-240, limits assumed)
T1 construct: also called mCD33-Fc
T1 sequence: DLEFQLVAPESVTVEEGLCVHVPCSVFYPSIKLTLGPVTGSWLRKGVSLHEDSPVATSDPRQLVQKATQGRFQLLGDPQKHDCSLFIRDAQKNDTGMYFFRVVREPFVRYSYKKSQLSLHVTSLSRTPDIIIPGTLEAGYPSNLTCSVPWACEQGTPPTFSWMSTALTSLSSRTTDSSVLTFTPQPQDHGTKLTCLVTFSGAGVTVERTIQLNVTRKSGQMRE


Legend:
human CD33 [1] = target: T2, human CD33 (human, UniProt P20138 18-364); experiment: flow cytometry, human primary macrophages;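 also: binding of CD33 antibodies at 10 µg/ml to human primary macrophages, 1 h on ice, detected with PE-labelled secondary antibody by flow cytometry, reported as MFI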
T2 construct: CD33 on human primary dendritic cells, macrophages, monocytes and T cells and on CHO cells expressing recombinant human CD33; also called Siglec-3; hCD33

[2] = target: T1, mouse CD33 Fc fusion protein; experiment: ForteBio BLI or MSD-SET
human CD33 [3] = target: T2, human CD33; experiment: cell-based or functional assay
[4] = target: T3, human CD33 Fc fusion protein (human, UniProt P20138 18-259); experiment: ForteBio BLI or MSD-SET, IgG, avid;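 also: Anti-CD33 IgG affinity by BLI, IgG captured on AHQ sensors with antigen in solution and a one-to-one kinetic fit, or by MSD solution equilibrium titration with quadratic fit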
T3 construct: also called hCD33-Fc; human CD33/Fc chimera (R&D Systems)
Protocol: The binding affinity of each anti-CD33 antibody was determined by measuring their KD by ForteBio or MSD-SET. […] Briefly, ForteBio affinity measurements were performed by loading IgGs on-line onto AHQ sensors. Sensors were equilibrated off-line in assay buffer for 30 min and then monitored on-line for 60 seconds for baseline establishment. Sensors with loaded IgGs were exposed to 100 nM antigen for 5 minutes, then transferred to assay buffer for 5 min for off-rate measurement. Kinetics were analyzed using the 1:1 binding model.
Solution equilibrium titrations (SET) were performed in PBS+0.1% IgG-Free BSA (PBSF) with antigen held constant at 50 pM and incubated with 3-to 5-fold serial dilutions of antibody starting at 10 nM. Antibodies (20 nM in PBS) were coated onto standard bind MSD-ECL plates overnight at 4° C. or at room temperature for 30 min. Plates were then blocked for 30 min with shaking at 700 rpm, followed by three washes with wash buffer (PBSF+0.05% Tween 20). SET samples were applied and incubated on the plates for 150s with shaking at 700 rpm followed by one wash. Antigen captured on a plate was detected with 250 ng/mL sulfotag-labeled streptavidin in PBSF by incubation on the plate for 3 min. The plates were washed three times with wash buffer and then read on the MSD Sector Imager 2400 instrument using 1× Read Buffer T with surfactant. The percent free antigen was plotted as a function of titrated antibody in Prism and fit to a quadratic equation to extract the KD. To improve throughput, liquid handling robots were used throughout MSD-SET experiments, including SET sample preparation.

human CD33 [5] = target: T2, human CD33; experiment: flow cytometry, human primary dendritic cells;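 also: binding of anti-CD33 antibodies (10 ug/ml, 1 h on ice) to human primary dendritic cells, detected with a PE-labelled secondary antibody, reported as flow cytometry MFI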
Protocol: (§1) Initial characterization of CD33 antibodies involved determining their ability to bind CD33 expressed on a CHO cell line, on human primary monocytes, human primary macrophages, human primary dendritic cells, and on human primary T cells. Cells were harvested, plated at 10⁶/ml in a 96 well plate, and incubated in 100 ul PBS containing 2% FBS, 2 mM EDTA and 10 ug/ml Mab and Fc blocking reagent for 1 hour in ice. Cells were washed twice and incubated in 100 ul PBS containing 2% FBS, 2 mM EDTA and 5 ug/ml PE-conjugated secondary antibody for 30 minutes on ice. Cells were washed twice in cold PBS and analyze by flow cytometry on a BD FACS Canto. Data analysis and calculation of MFI values was performed with FlowJo (TreeStar) software version 10.0.7.

[6] = target: T4, human monomeric His tagged CD33 protein (human, UniProt P20138 18-259); experiment: ForteBio BLI or MSD-SET, IgG, monomeric antigen;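 also: BLI: antibodies captured on AHQ sensors, 100 nM antigen association 5 min, dissociation 5 min, 1:1 fit. MSD-SET: antigen fixed at 50 pM, antibody titrated, quadratic fit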
T4 construct: also called hCD33-His

human CD33 [7] = target: T2, human CD33; experiment: flow cytometry, human primary T cells;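 also: binding of anti-CD33 antibodies at 10 ug/ml to human primary T cells, 1 h on ice, detected with PE-labelled secondary antibody, read as flow cytometry MFI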
Protocol: as §1

[8] = target: T3, human CD33 Fc fusion protein; experiment: RBC adhesion to plate-bound CD33-Fc; antibody 0.5 ug/ml;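 also: Plate-coated CD33-Fc preincubated 1 h with antibody, then red blood cells added for 1 h at room temperature, adherent cells lysed and quantified via peroxidase activity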
[9] = target: T3, human CD33 Fc fusion protein; experiment: RBC adhesion to plate-bound CD33-Fc; antibody 1.0 ug/ml;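 also: red blood cells adhering to plate-coated CD33-Fc after 1 h antibody pretreatment, then 1 h at room temperature, bound cells read as peroxidase activity after lysis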
Protocol: Briefly, 5 ug/ml CD33-Fc was coated overnight at RT in 96 well Immunolon plates, then washed with PBS, blocked for one hour with binding buffer (PBS containing %0.25 BSA 1 mM CaCl₂). CD33 antibodies (0.5 ug/ml or 1.0 ug/ml) or Fabs (25 ug/ml) were bound for one hour at RT with gentle rocking. After removal of unbound antibody, red blood cells were added to each well at a concentration of 3.0×10⁶ cells per ml and incubated at RT for one hour. Unbound RBCs were then carefully washed off 3× with PBS, and water was added to each well for hypotonic lysis of bound RBCs. The plate was transferred to −80° C. for 10 minutes, followed by 37° C. for 15 minutes. Bound RBCs were detected by peroxidase activity, followed by 2N sulfuric acid to stop the reaction.

human CD33 [10] = target: T2, human CD33; experiment: flow cytometry, human primary monocytes; parameters: reference not given here;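 also: binding of anti-CD33 antibodies at 10 ug/ml to human primary monocytes, 1 h on ice, detected by PE-labelled secondary antibody, flow cytometry readout as mean fluorescence intensity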

T2 sequence (P20138 18-364): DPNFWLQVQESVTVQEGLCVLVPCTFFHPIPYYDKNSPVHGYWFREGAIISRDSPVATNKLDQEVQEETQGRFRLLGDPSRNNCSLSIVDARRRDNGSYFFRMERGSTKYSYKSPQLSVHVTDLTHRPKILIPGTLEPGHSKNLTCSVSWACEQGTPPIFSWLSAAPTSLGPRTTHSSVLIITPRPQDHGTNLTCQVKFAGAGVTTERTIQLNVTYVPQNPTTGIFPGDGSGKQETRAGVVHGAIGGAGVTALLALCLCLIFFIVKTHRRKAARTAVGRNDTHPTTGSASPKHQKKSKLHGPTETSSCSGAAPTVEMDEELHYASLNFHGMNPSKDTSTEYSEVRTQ
T4 sequence (P20138 18-259 limits assumed): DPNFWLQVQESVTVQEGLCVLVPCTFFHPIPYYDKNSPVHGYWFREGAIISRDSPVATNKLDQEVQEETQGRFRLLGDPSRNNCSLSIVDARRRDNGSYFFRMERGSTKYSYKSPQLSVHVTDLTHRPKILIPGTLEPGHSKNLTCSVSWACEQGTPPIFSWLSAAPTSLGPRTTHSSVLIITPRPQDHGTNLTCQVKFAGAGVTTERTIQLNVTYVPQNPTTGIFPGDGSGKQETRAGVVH
T3 sequence (P20138 18-259 limits assumed): as above

Row | Binder | Macrophage MFI (human CD33 [1]) | binding result [2] | Percent CD33 Surface Expression, DC % CD33 (human CD33 [3]) [%] | Percent CD33 Surface Expression, Monocyte % CD33 (human CD33 [3]) [%] | Kd [4] [nM] | DC MFI (human CD33 [5]) | Kd [6] [nM] | T cell MFI (human CD33 [7]) | Percent RBC Binding to CD33 [8] [%] | Percent RBC Binding to CD33 [9] [%] | Monocyte MFI (human CD33 [10]) | Percent CD33 Surface Expression, Macrophage % CD33 (human CD33 [3]) [%]
1 | C-77 (antibody, V domains shown, human IgG1) VH: not shown VL: DIVLTQSPDSLAVSLGERATINCKSSQSVLYSSNNKNYLAWYQQKPGQAPRLLIYGASSRATGIPDRFSGSGSGTDFTLTISRLEPEDFAVYYCQQDYVSPLTFGGGTKVEIK | 493 | no binding (tested: 100 nM) | 84.2 | 87.6 | 2.15 | 43 | 11.1 | 263 | 61.4 | 77.7 | 698 | –
2 | C-90 (antibody, V domains shown, human IgG1) VH: EVQLVESGGGLVQPGGSLRLSCAASGFTFSSYWMSWVRQAPGKGLEWVANINQDGSEKYYVDSVKGRFTISRDNAKNSLYLQMNSLRAEDTAVYYCAREAGAVTGYRWFDPWGQGTLVTVSS VL: DIQMTQSPSSLSASVGDRVTITCRASQSISSYLNWYQQKPGKAPKLLIYGASSLQSGVPSRFSGSGSGTDFTLTISSLQPEDFATYYCQQQYLTPLTFGGGTKVEIK | 1260 | no binding (tested: 100 nM) | 18.5 | 35.4 | 1.51 | 151 | 5.74 | 329 | 17.2 | 6.8 | 987 | 41.3
3 | C-91 (antibody, V domains shown, human IgG1) VH: EVQLVESGGGLVQPGGSLRLSCAASGFTFSSYWMSWVRQAPGKGLEWVANIKSDGSEKYYVDSVKGRFTISRDNAKNSLYLQMNSLRAEDTAVYYCARDVGGDYSGSDLASYWGQGTLVTVSS VL: DIQMTQSPSSLSASVGDRVTITCRASQSISSYLNWYQQKPGKAPKLLIYAASSLQSGVPSRFSGSGSGTDFTLTISSLQPEDFATYYCQQGYDPPLTFGGGTKVEIK | 1230 | no binding (tested: 100 nM) | 18.8 | 24.3 | 1.2 | 150 | 4.26 | 38.2 | 17.6 | 7 | 893 | 38.4
4 | C-89 (antibody, V domains shown, human IgG1) VH: QLQLQESGPGLVKPSETLSLTCTVSGGSISSSSYYWGWIRQPPGKGLEWIGSIYYSGSTYYNPSLKSRVTISVDTSKNQFSLKLSSVTAADTAVYYCAREGPRFDPWGQGTLVTVSS VL: not shown | 1420 | no binding (tested: 100 nM) | 19.6 | 25.3 | 1.16 | 203 | 4.88 | 109 | 20.6 | 10.5 | 1120 | 41.2
5 | C-79 (antibody, V domains shown, human IgG1) VH: QVQLVQSGAEVKKPGASVKVSCKASGYTFTSYYIHWVRQAPGQGLEWMGIINPSGGSTSYAQKFQGRVTMTRDTSTSTVYMELSSLRSEDTAVYYCARVSRQQHSMDVWGQGTTVTVSS VL: not shown | 654 | no binding (tested: 100 nM) | 83.1 | 91.1 | 2.28 | 43 | 11.2 | 228 | 45.7 | 83.5 | 815 | –
6 | C-7 (antibody, V domains shown, human IgG1) VH: not shown VL: DIQMTQSPSTLSASVGDRVTITCRASQSISSWLAWYQQKPGKAPKLLIYDASSLESGVPSRFSGSGSGTEFTLTISSLQPDDFATYYCQQARSYPPTFGGGTKVEIK | 626 | no binding (tested: 100 nM) | 66.9 | 96.5 | 1.01 | 814 | 3.29 | 52.5 | 122 | 108 | 87 | 97
7 | C-84 (antibody, V domains shown, human IgG1) VH: not shown VL: DIQMTQSPSTLSASVGDRVTITCRASQSISSWLAWYQQKPGKAPKLLIYDASSLESGVPSRFSGSGSGTEFTLTISSLQPDDFATYYCQQVNRYPFTFGGGTKVEIK | 313 | no binding (tested: 100 nM) | 75.9 | 90.4 | 7.39 | 55 | 62.6 | 95.8 | 96.8 | 103 | 532 | –
8 | C-87 (antibody, V domains shown, human IgG1) VH: QLQLQESGPGLVKPSETLSLTCTVSGGSISSSSYAWGWIRQPPGKGLEWIGSIYYSGSTYYNPSLKSRVTISVDTSKNQFSLKLSSVTAADTAVYYCARDPLYPLTPYGMDVWGQGTTVTVSS VL: EIVMTQSPATLSLSPGERATLSCRASQSVSSYLAWYQQKPGQAPRLLIYDASNRATGIPARFSGSGSGTDFTLTISSLEPEDFAVYYCQQLSVFPPTFGGGTKVEIK | 1260 | no binding (tested: 100 nM) | 28.4 | 36.1 | 1.93 | 172 | 7.04 | 246 | 29.4 | 9.5 | 971 | 47.5
9 | C-88 (antibody, V domains shown, human IgG1) VH: QLQLQESGPGLVKPSETLSLTCTVSGGSISSSSYYWGWIRQPPGKGLEWIGSIYYSGSTYYNPSLKSRVTISVDTSKNQFSLKLSSVTAADTAVYYCARLPIYYDSSGYFDYHGMDVWGQGTTVTVSS VL: EIVLTQSPATLSLSPGERATLSCRASQSVSSYLAWYQQKPGQAPRLLIYDASNRATGIPARFSGSGSGTDFTLTISSLEPEDFAVYYCQQHANHPPTFGGGTKVEIK | 1200 | no binding (tested: 100 nM) | 18.6 | 28.7 | 0.734 | 178 | 2.7 | 204 | 39.4 | 10.9 | 957 | 41.4

Reference: patent US20220281976A1 (Alector, published 2022)
